Earlier results in article PMC9222382.

Target: IL-10Rα (Homo sapiens) (UniProt Q13651)
UniProt Q13651, sequence (Q13651 22-235): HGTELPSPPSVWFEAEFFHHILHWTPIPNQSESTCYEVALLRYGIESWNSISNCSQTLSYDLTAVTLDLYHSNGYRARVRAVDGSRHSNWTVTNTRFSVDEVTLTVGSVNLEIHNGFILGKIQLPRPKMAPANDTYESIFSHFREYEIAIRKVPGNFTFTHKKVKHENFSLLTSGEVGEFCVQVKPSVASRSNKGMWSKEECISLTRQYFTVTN

IL-10 (from UniProt P22301)
Kd: 1 nM
